Values belong to the substance of their own block, whether it stands above or below them.
Experiments:
[1] = target: human CD47 (hCD47) expressed on cells (human) (UniProt Q08722); assay: flow cytometry, Raji cells
[2] = target: human CD47 (hCD47) expressed on cells (human) (UniProt Q08722); assay: flow cytometry, Raji cells, competition with His-hSIRPα
[3] = target: hu-sCD47-6His; extracellular domain of human CD47 antigen with 6His-tag (human); assay: SPR Biacore
[4] = target: hu-sCD47-6His; extracellular domain of human CD47 antigen with 6His-tag (human); assay: ELISA, coated glycosylated hCD47-His
[5] = target: N-deglycosylated soluble hCD47-His (PNGase treated) (human); assay: ELISA, coated N-deglycosylated hCD47-His
[6] = target: N-deglycosylated soluble hCD47-His (PNGase treated) (human); assay: ELISA, one-site binding saturation fit, deglycosylated hCD47
[7] = target: hu-sCD47-6His; extracellular domain of human CD47 antigen with 6His-tag (human); assay: ELISA, one-site binding saturation fit, glycosylated hCD47

Chain of humanized 5F9 (hu5F9; vh2-vl2) (antibody) (VH): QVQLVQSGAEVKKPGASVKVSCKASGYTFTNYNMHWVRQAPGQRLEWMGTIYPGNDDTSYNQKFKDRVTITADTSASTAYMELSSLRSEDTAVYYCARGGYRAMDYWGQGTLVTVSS
Chain of humanized 5F9 (hu5F9; vh2-vl2) (antibody) (VL): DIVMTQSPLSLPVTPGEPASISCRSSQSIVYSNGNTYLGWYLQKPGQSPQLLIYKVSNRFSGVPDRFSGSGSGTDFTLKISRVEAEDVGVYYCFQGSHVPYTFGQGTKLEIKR
Chain of B6H12 (mouse IgG1, Abcam) (antibody) (VH): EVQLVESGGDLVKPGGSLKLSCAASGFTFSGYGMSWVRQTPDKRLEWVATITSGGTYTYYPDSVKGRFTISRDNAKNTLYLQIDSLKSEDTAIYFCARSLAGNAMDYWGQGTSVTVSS
Chain of B6H12 (mouse IgG1, Abcam) (antibody) (VL): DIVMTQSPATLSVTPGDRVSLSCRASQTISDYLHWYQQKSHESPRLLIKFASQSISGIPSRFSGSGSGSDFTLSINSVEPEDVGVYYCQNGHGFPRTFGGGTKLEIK

- EC50 [1]: 2.93 µg/mL
Substance: B6H12 (mouse IgG1, Abcam) (antibody)

- IC50 [2]: 0.209 µg/mL
Substance: chimeric 5F9 (c5F9) (antibody)

- Kd [3]: 730 pM
- EC50 [4]: 54.7 pM
- EC95 [4]: 1960 pM
- EC50 [5]: 254 pM
- EC95 [5]: 54000 pM
- Bmax2 [6]: 1.4 OD value
- equilibrium binding constant [6]: 129 pM
- Bmax [7]: 2.66 OD value
- equilibrium binding constant [7]: 49 pM
Substance: humanized 5F9 (hu5F9; vh2-vl2) (antibody)

Source: patent publication US20220356245A1
